Source: article doi:10.1101/2022.04.07.487468
Like-named read-outs stand apart in the source and are kept apart here.

B1: zfWnt5b-GFP (ligand)
chain: QLLVVANSWWSLAMNPIQRPEMYIIGAQPLCSQLTGLSQGQRKLCQLYQDHMVYIGEGAKTGIKECQYQFRQRRWNCSTVDNTSVFGRVMHIGSRETAFTYAVSAAGVVNAVSRACREGELSTCGCSRAARPRDLPRDWLWGGCGDNVNYGYRFAREFVDAREREKNYPRGSVEHARTLMNLQNNEAGRMAVYNLANVACKCHGVSGSCSLKTCWLQLADFRRVGEFLKEKYDSAAAMRINRRGKLELVNNRFNPPTGEDLVYIDPSPDYCLRNETTGSLGTQGRLCNKTSEGMDGCELMCCGRGYDQFKTYKHERCHCKFHWCCYVKCKRCTSLVDQFVCK

Tests used:
[1] = molecular target: memGFP (zebrafish | not stated); assay: fluorescence cross-correlation spectroscopy
[2] = molecular target: mCherry-xRor2 (not stated (prefix x in xRor2; Xenopus from memory)); assay: FRET or BRET
[3] = molecular target: Ror2-mCherry (not stated (xRor2 or zebrafish Ror2 cDNA cloned)); assay: fluorescence cross-correlation spectroscopy
[4] = molecular target: Ror2-mCherry (not stated (xRor2 or zebrafish Ror2 cDNA cloned)); assay: fluorescence cross-correlation spectroscopy; remark: listed apart in the source
[5] = molecular target: zfRor2-ΔCRD-mCherry (zebrafish); assay: fluorescence cross-correlation spectroscopy
[6] = molecular target: Ror2-mCherry (not stated (xRor2 or zebrafish Ror2 cDNA cloned)); assay: fluorescence cross-correlation spectroscopy; remark: listed apart in the source

Kd [1] | FRET efficiency [2] | Kd [3] | Kd [4] | Kd [5] | Kd [6] | Molecule
> 9.3 µM |  |  |  |  |  | cytosolic mCherry
 | 11.3 to 13% | 3.56 µM | 0.311 to 0.476 µM | > 6.68 µM | 0.45 µM | B1
